Among the data in patent US20260274944A1 (published 2026) are Kd values, retold here.

Test [1] has as its target T1, mouse RAGE (mRAGE) fused to EGFP, expressed on CHO cells (mouse, UniProt Q62151 23-402).
T1 chain: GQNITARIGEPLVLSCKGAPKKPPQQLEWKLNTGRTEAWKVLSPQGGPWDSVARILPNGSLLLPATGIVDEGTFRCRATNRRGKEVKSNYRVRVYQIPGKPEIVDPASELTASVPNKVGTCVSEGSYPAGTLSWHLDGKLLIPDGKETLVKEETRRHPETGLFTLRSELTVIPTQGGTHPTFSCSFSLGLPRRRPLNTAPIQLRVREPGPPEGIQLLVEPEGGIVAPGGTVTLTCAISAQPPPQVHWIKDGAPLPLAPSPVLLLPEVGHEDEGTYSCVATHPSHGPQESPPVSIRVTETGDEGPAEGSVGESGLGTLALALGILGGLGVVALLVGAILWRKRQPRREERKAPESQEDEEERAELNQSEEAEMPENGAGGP
As to the kind of experiment: flow cytometry on CHO-mRAGE-EGFP cells; apparent Kd; column head prints TfR, legend says RAGE. A general note: A flow cytometer gives signals particle by particle.

In test [2] the target is T2, human RAGE (hRAGE) fused to EGFP, stably expressed on CHO cells (human, UniProt Q15109 23-404). As to the kind of experiment: flow cytometry on CHO-hRAGE-EGFP cells; apparent Kd; column head prints TfR, legend says RAGE.
In test [3] the target is T1, mouse RAGE (mRAGE) fused to EGFP, …. As to the kind of experiment: flow cytometry on CHO-mRAGE-EGFP cells; apparent Kd.
Test [4] has as its target T2, human RAGE (hRAGE) fused to EGFP, …. As to the kind of experiment: flow cytometry on CHO-hRAGE-EGFP cells; apparent Kd.
Test [5] concerns the target T1, mouse RAGE (mRAGE) fused to EGFP, …. As to the kind of experiment: flow cytometry on CHO-mRAGE-EGFP cells; apparent Kd.
Test [6] has the same target. In words: flow.
Test [7] shares this target. In words: flow.

T2 sequence (Q15109 23-404): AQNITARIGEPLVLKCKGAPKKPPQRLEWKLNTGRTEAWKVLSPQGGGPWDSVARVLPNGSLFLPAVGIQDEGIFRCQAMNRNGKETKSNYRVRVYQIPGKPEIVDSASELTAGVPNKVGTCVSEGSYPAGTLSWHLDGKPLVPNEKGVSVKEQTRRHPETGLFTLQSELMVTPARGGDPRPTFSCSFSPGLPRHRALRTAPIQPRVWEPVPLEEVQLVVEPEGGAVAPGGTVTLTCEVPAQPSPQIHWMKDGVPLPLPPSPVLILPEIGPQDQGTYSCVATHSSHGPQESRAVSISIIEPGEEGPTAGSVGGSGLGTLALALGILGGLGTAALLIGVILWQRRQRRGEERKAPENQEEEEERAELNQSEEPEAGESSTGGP

B1: VHH 1-Fc (Fc fusion)
chain: QVQLVQSGGGLVQPGGSLRLSCAVSGSIFSSATMGWYRQAPGKQRELAARISSGGSTNYLDSVKGRFTISRDNAKNTVYLQMNSLKLEDTAVYYCRLQANFGLVDYWGKGTQVTVSS
As to B1, the figures for the Kd in test [1] and in test [2] were 1.9 nM and 154 nM, respectively.

B2: VHH 1 (VHH)
VHH: QVQLVQSGGGLVQPGGSLRLSCAVSGSIFSSATMGWYRQAPGKQRELAARISSGGSTNYLDSVKGRFTISRDNAKNTVYLQMNSLKLEDTAVYYCRLQANFGLVDYWGKGTQVTVSS
Consider B2, for which the Kd came out at 320 nM in test [3] and 347 nM in test [4].

B3: VHH 2-Fc (Fc fusion)
chain: QVQLVQSGGGLVQAGGSLRLSCAASGSVSSIYAMGWYRQAPGKQREWVTTITGRGITDYAASVKGRFTISRDTAKNAVYLQMNNLKPEDTARYYCKIDRRGYAPYWGQGTQVTVSS
As for B3, the Kd in test [1] stood at 9.6 nM; in test [2] it was 3.6 nM.

B4: VHH 2 (VHH)
VHH: QVQLVQSGGGLVQAGGSLRLSCAASGSVSSIYAMGWYRQAPGKQREWVTTITGRGITDYAASVKGRFTISRDTAKNAVYLQMNNLKPEDTARYYCKIDRRGYAPYWGQGTQVTVSS
For B4, the Kd in test [3] turned out to be 526 nM.

B5: VHH 2-siTTRm (antibody, V domains shown)
VH: QVQLVQSGGGLVQAGGSLRLSCAASGSVSSIYAMGWYRQAPGKQREWVTTITGRGITDYAASVKGRFTISRDTAKNAVYLQMNNLKPEDTARYYCKIDRRGYAPYWGQGTQVTVSS
Regarding B5, the Kd in test [5] was determined as 119 nM.

B6: VHH 3 (VHH)
VHH: QVQLVQSGGGLVQAGGSLRLSCVASGRTFSNYAMAWFRQAPGEEREFVARISWSGGRTSYADSVKGRFTISRDNAKNTVYLQMISLKPEDTAVYYCATEAGAFGGVYSSTGSYDYWGQGTQVTVSS
The molecule B6 had a Kd in test [6] of 80 nM.

B7: VHH 4-siTTRm (antibody, V domains shown)
VH: EVQLVESGGGLVQAGGSLRLSCVASGRTFSNYAMAWFRQAPGEEREFVARISWRGGRTSYADSVKGRFTISRDNAKNTVYLQMISLKPEDTAVYYCASEGGAFGGVYSATGSYDYWGQGTQVTVSS
With B7, in test [5], the Kd worked out at 11 nM.

B8: VHH 4-Fc (Fc fusion)
chain: EVQLVESGGGLVQAGGSLRLSCVASGRTFSNYAMAWFRQAPGEEREFVARISWRGGRTSYADSVKGRFTISRDNAKNTVYLQMISLKPEDTAVYYCASEGGAFGGVYSATGSYDYWGQGTQVTVSS
On to B8, for which the Kd in test [1] came out at 1.4 nM.

B9: VHH 3-Fc (Fc fusion)
chain: QVQLVQSGGGLVQAGGSLRLSCVASGRTFSNYAMAWFRQAPGEEREFVARISWSGGRTSYADSVKGRFTISRDNAKNTVYLQMISLKPEDTAVYYCATEAGAFGGVYSSTGSYDYWGQGTQVTVSS
In test [7], B9 returned a Kd of 1.4 nM.

B10: VHH 5-Fc (Fc fusion)
chain: EVQLVESGGGLVQPGGSLRLSCAASGTIFSLNPMGWYRQAPGKQLELVALISDSGTANYADFVRGRFTISRDTTKKTLYLQMNSLEPEDTAVYYCRSTFAAGNFYWGQGTQVTVSS
Take B10: the values for the Kd in test [1] and in test [2] were 153 nM and 3.2 nM, respectively.
